# T1: Ac-LRSR-amc
# T1 chain: LRSR
# B1: recombinant purified GST-Malt1 protein, oligomerized by binding to glutathione sepharose (protein)
# chain: MSLLGDPLQALPPSAAPTGPLLAPPAGATLNRLREPLLRRLSELLDQAPEGRGWRRLAELAGSRGRLRLSCLDLEQCSLKVLEPEGSPSLCLLKLMGEKGCTVTELSDFLQAMEHTEVLQLLSPPGIKITVNPESKAVLAGQFVKLCCRATGHPFVQYQWFKMNKEIPNGNTSELIFNAVHVKDAGFYVCRVNNNFTFEFSQWSQLDVCDIPESFQRSVDGVSESKLQICVEPTSQKLMPGSTLVLQCVAVGSPIPHYQWFKNELPLTHETKKLYMVPYVDLEHQGTYWCHVYNDRDSQDSKKVEIIIGRTDEAVECTEDELNNLGHPDNKEQTTDQPLAKDKVALLIGNMNYREHPKLKAPLVDVYELTNLLRQLDFKVVSLLDLTEYEMRNAVDEFLLLLDKGVYGLLYYAGHGYENFGNSFMVPVDAPNPYRSENCLCVQNILKLMQEKETGLNVFLLDMCRKRNDYDDTIPILDALKVTANIVFGYATCQGAEAFEIQHSGLANGIFMKFLKDRLLEDKKITVLLDEVAEDMGKCHLTKGKQALEIRSSLSEKRALTDPIQGTEYSAESLVRNLQWAKAHELPESMCLKFDCGVQIQLGFAAEFSNVMIIYTSIVYKPPEIIMCDAYVTDFPLDLDIDPKDANKGTPEETGSYLVSKDLPKHCLYTRLSSLQKLKEHLVFTVCLSYQYSGLEDTVEDKQEVNVGKPLIAKLDMHRGLGRKTCFQTCLMSNGPYQSSAATSGGAGHYHSLQDPFHGVYHSHPGNPSNVTPADSCHCSRTPDAFISSFAHHASCHFSRSNVPVETTDEIPFSFSDRLRISEK
# Molecular target: T1, Ac-LRSR-amc
protein,measurement,value
B1,LRSR-amc cleavage activity of recombinant enzyme (fluorescence),"recombinant purified GST-Malt1 protein, oligomerized by binding to glutathione sepharose, was tested for LRSR-amc clavage activity"

# Source: patent US20100184709
